Assay results from PMC7968930, “A conserved cell division protein directly regulates FtsZ dynamics in filamentous and unicellular actinobacteria” (eLife, 2021).
Blank lines part the entries; values can stand above or below the molecule they belong to.

Legend:
[1] = system: T1, SepH (Streptomyces venezuelae NRRL B-65442), ORF:b45d4985; test: DNase I footprinting; conditions: 50 mM HEPES/KOH pH 7.2, 50 mM KCl, 5 mM MgCl2, room temperature, 30 min (EMSA 50 ng probe in 20 uL, 0.5x TBE gel; footprinting 40 uL)
T1 sequence: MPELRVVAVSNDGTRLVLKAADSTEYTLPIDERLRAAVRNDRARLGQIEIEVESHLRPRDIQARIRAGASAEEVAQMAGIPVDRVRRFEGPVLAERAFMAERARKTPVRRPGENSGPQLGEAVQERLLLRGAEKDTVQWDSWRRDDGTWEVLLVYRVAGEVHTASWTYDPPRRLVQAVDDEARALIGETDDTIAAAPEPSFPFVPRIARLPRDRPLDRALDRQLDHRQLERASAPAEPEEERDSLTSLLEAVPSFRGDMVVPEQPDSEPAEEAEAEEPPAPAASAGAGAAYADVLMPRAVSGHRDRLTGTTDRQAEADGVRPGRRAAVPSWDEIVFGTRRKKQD

[2] = system: T1, SepH (Streptomyces venezuelae NRRL B-65442), ORF:b45d4985; test: EMSA; conditions: 50 mM HEPES/KOH pH 7.2, 50 mM KCl, 5 mM MgCl2, room temperature, 30 min (EMSA 50 ng probe in 20 uL, 0.5x TBE gel; footprinting 40 uL)
[3] = molecular target: FtsZ (S. venezuelae), purified, untagged (Streptomyces venezuelae); test: co-sedimentation; high speed (350,000 x g, 15 min); 3.5 µM FtsZ, 0.6 µM SepH or SepH-G79P, with or without 2 mM GTP, buffer P, 30°C; SDS-PAGE, Coomassie, bands quantified
[4] = molecular target: FtsZ (S. venezuelae), purified, untagged (Streptomyces venezuelae); test: co-sedimentation; high speed (350,000 x g, 15 min); 3.5 µM FtsZ, with or without 0.6 µM SepH, 1 mM GMPCCP, buffer P, 30°C
[5] = molecular target: SepH (S. venezuelae), purified, untagged (Streptomyces venezuelae); test: SEC; 30 µM protein, Superose 12 10/300 GL, buffer P (50 mM HEPES pH 7.2, 50 mM KCl, 5 mM MgCl2); size predicted from MW standards
[6] = molecular target: FtsZ (S. venezuelae), purified, untagged (Streptomyces venezuelae)
[7] = molecular target: SepH-CTD (residues 187-344 of S. venezuelae SepH), purified, untagged (Streptomyces venezuelae); test: SEC; 30 µM protein, Superose 12 10/300 GL, buffer P (50 mM HEPES pH 7.2, 50 mM KCl, 5 mM MgCl2); size predicted from MW standards
[8] = molecular target: SepH-G79P (S. venezuelae), purified, untagged (Streptomyces venezuelae); test: as above
[9] = molecular target: SepH-NTD (residues 1-186 of S. venezuelae SepH), purified, untagged (Streptomyces venezuelae); test: as above
[10] = molecular target: the molecule itself; test: SEC; SepHMs, Superose 12 10/300 GL, modified buffer P (50 mM HEPES pH 6.8, 100 mM KCl, 5 mM MgCl2); size predicted from MW standards

Molecule: CCTTCGATCGTCCCTGGTCGGAGCGGCCGGTCGATGATCGAATCGGCGGCTCGGGATGATCACTGCCCGAGTGGGATGCCACCATGCCGACCCATGCGGCGGCTCACTCGAACGGGTCGAACGCGCCGGGGTGCGCGCCCCTCAGGCGCCGTGGGCGCGCCTCTCAGCGGAGAGGACGTGTTCCCCGGGAACGACAAAGCCCCGGTTGGACGGGGGATTCCAACCGGGGCCGATCGCCGTGACGCGAAGGGC (double strand) [vnz_35870 promoter region probe]
- binding [1]: no binding
- binding [2]: no binding

Molecule: FtsZ (S. venezuelae), purified, untagged (natural protein)
- percent of FtsZ in the pellet (with GTP and SepH) [3]: 47%
- percent of FtsZ in the pellet (with GTP and SepH-G79P) [3]: 36%
- percent of FtsZ in the pellet (with GTP) [3]: 35%
- percent of FtsZ in the pellet (with GMPCCP) [4]: 88%

Molecule: GCGGTCGTCGCCGCGGGCGGAGCCGATGCCCATCAGGGCCGAACCGGCCTCGGACATGACCGACTTGACGTCGGCGAAGTCGAGGTTGATCAGGCCCGGGGTGGTGATGAGGTCGGTGATGCCCTGCACACCGCTCAGCAGCACCTGGTCGGCCGACTTGAAGGCGTCGAGCACGGAGACCTGGCGGTCCGAGATCGACAGGAGCCGGTCGTTGGGGATGACGATGAGGGTGTCGACCTCTTCGCGGAGCTCGGCGATGCC (double strand) [vnz_08520 (ftsZ) internal probe]
- binding [2]: no binding

Molecule: GCTGCTCGTCCCCGCGCAGGCGGAACCCGACGACGTCGTCCTGTCCTGGGAGGGGGAGGACGTGCTCGCCGTACGGCTGCCGCAGCTGTCCGAATCCCTCGATCACATCCTGGCGGCGATGGAGCGGCGGCACGGGATGCCACTGGCCGAGCTGGACCGCAAGGCCAAGCAGGAGGCCGTCCGTCTGCTGGAGGCGCGCGGCGCCTTCGCCGTACGCCATGGAGTGGAGACGGTGGCGGGTGCACTCGGTGTCAGCCGC (double strand) [vnz_30075 promoter region probe]
- binding [1]: no binding

Molecule: SepH (S. venezuelae), purified, untagged (natural protein)
- percent of SepH in the pellet (with FtsZ and GTP) [3]: 96%
- stoichiometry N [5]: 4
- percent of SepH in the pellet (with FtsZ and GMPCCP) [4]: 98%
- critical concentration of FtsZ from the GTPase rate, with 0.6 µM SepH (1.43 µM without SepH) [6]: 1.11 µM

- stoichiometry N [7]: 4
Molecule: SepH-CTD (residues 187-344 of S. venezuelae SepH), purified, untagged (domain or fragment)

- percent of SepH-G79P in the pellet (with FtsZ and GTP) [3]: 50%
- stoichiometry N [8]: 4
Molecule: SepH-G79P (S. venezuelae), purified, untagged (natural protein)

- stoichiometry N [9]: 2
Molecule: SepH-NTD (residues 1-186 of S. venezuelae SepH), purified, untagged (domain or fragment)

B1: SepHMs-6xHis (SepH from M. smegmatis), purified (natural protein, Mycobacterium smegmatis mc2 155, UniProt A0R430 1-276, looked up)
chain: MRELRVVGLDVDGKRIICETADSAEMFTLRVDDRLRAALRGDKVASNQTEIDLEVQSVLRPKEIQAKIRAGASVEQLAAAAGVPVERVERFAHPVLLERARAAELATAAHPVLADGPSVLTLLETVTKALVARGLDPDAVAWDAWRNEDSRWTVQLAWKAGRSDNVAHFRFTPGSHGGLVTASDDAAHQLINPDFARPLRPVAAVPQLEFEAPQPAQPAAPPQPAQAVPTPEPAPAPEQEPEPAPAPAPKRSRKARATVPAWEDVLLGVRSSGTQR
notes: SepH homolog of Mycobacterium smegmatis mc2 155, MSMEG_5685, in pET21b (pSS561); Tetramer predicted from size exclusion chromatography; also called SepHMs-His6; SepH-6xHis; source: E. coli Rossetta (DE3), purified (HisTrap); not shown: His6, C-terminal, kept
- stoichiometry N [10]: 4
